Source: publication PMC7228847 (Cell host & microbe, 2020)

B1: Recombinant human Fc-tagged SEMA6B extracellular domain (Fc fusion)
chain: LFPEEPPPLSVAPRDYLNHYPVFVGSGPGRLTPAEGADDLNIQRVLRVNRTLFIGDRDNLYRVELEPPTSTELRYQRKLTWRSNPSDINVCRMKGKQEGECRNFVKVLLLRDESTLFVCGSNAFNPVCANYSIDTLQPVGDNISGMARCPYDPKHANVALFSDGMLFTATVTDFLAIDAVIYRSLGDRPTLRTVKHDSKWFKEPYFVHAVEWGSHVYFFFREIAMEFNYLEKVVVSRVARVCKNDVGGSPRVLEKQWTSFLKARLNCSVPGDSHFYFNVLQAVTGVVSLGGRPVVLAVFSTPSNSIPGSAVCAFDLTQVAAVFEGRFREQKSPESIWTPVPEDQVPRPRPGCCAAPGMQYNASSALPDDILNFVKTHPLMDEAVPSLGHAPWILRTLMRHQLTRVAVDVGAGPWGNQTVVFLGSEAGTVLKFLVRPNASTSGTSGLSVFLEEFETYRPDRCGRPGGGETGQRLLSLELDAASGGLLAAFPRCVVRVPVARCQQYSGCMKNCIGSQDPYCGWAPDGSCIFLSPGTRAAFEQDVSGASTSGLGDCTGLLRASLSEDRAGLVSVNLLVTSS
B2: Recombinant human Fc-tagged SEMA6A extracellular domain (Fc fusion)
chain: GFPEDSEPISISHGNYTKQYPVFVGHKPGRNTTQRHRLDIQMIMIMNGTLYIAARDHIYTVDIDTSHTEEIYCSKKLTWKSRQADVDTCRMKGKHKDECHNFIKVLLKKNDDALFVCGTNAFNPSCRNYKMDTLEPFGDEFSGMARCPYDAKHANVALFADGKLYSATVTDFLAIDAVIYRSLGESPTLRTVKHDSKWLKEPYFVQAVDYGDYIYFFFREIAVEYNTMGKVVFPRVAQVCKNDMGGSQRVLEKQWTSFLKARLNCSVPGDSHFYFNILQAVTDVIRINGRDVVLATFSTPYNSIPGSAVCAYDMLDIASVFTGRFKEQKSPDSTWTPVPDERVPKPRPGCCAGSSSLERYATSNEFPDDTLNFIKTHPLMDEAVPSIFNRPWFLRTMVRYRLTKIAVDTAAGPYQNHTVVFLGSEKGIILKFLARIGNSGFLNDSLFLEEMSVYNSEKCSYDGVEDKRIMGMQLDRASSSLYVAFSTCVIKVPLGRCERHGKCKKTCIASRDPYCGWIKEGGACSHLSPNSRLTFEQDIERGNTDGLGDCHNSFVALNGHSSSLLPSTTTSDSTAQEGYESRGGMLDWKHLLDSPDSTDPLGAVSSHNHQDKKGVIRESYLKGHDQLVPVT
B3: TcsL_(1285-1804) (domain or fragment)
chain: TNVRINLDGNTRSFIVPVITTEQIRKNLSYSFYGSGGSYSLSLSPYNMNIDLNLVENDTWVIDVDNVVKNITIESDEIQKGELIENILSKLNIEDNKIILNNHTINFYGDINESNRFISLTFSILEDINIIIEIDLVSKSYKILLSGNCMKLIENSSDIQQKIDHIGFNGEHQKYIPYSYIDNETKYNGFIDYSKKEGLFTAEFSNESIIRNIYMPDSNNLFIYSSKDLKDIRIINKGDVKLLIGNYFKDDMKVSLSFTIEDTNTIKLNGVYLDENGVAQILKFMNNAKSALNTSNSLMNFLESINIKNIFYNNLDPNIEFILDTNFIISGSNSIGQFELICDKDKNIQPYFINFKIKETSYTLYVGNRQNLIVEPSYHLDDSGNISSTVINFSQKYLYGIDRYVNKVIIAPNLYTDEINITPVYKPNYICPEVIILDANYINEKINVNINDLSIRYVWDNDGSDLILIANSEEDNQPQVKIRFVNVFKSDTAADKLSFNFSDKQDVSVSKIISTFSLAA

How the values were obtained:
Test in all cases: BLI
[1] = target: TcsL (Paeniclostridium sordellii lethal toxin), recombinant His-tagged, full length (Paeniclostridium sordellii strain 6018, UniProt Q46342)
[2] = target: B1
[3] = target: B2

Binder | Kd [1] [nM] | binding result [2] | binding result [3]
B1 | ~60 |  | 
B2 | ~40 |  | 
B3 |  | binds | binds
